The record followed here is patent US20230312730A1 (ATYR PHARMA, published 2023).

Assay [1] addresses human NRP2 endogenously expressed on cell lines (human) (UniProt O60462). The assay is described as follows: flow cytometry on A549 WT cells. (A flow cytometer gives signals particle by particle.)
Assay [2] has as its target T1, human NRP2 variant 2 (NM_003872) over-expressed on Expi293-hNRP2 clonal cells (human, UniProt O60462 23-931).
T1 sequence: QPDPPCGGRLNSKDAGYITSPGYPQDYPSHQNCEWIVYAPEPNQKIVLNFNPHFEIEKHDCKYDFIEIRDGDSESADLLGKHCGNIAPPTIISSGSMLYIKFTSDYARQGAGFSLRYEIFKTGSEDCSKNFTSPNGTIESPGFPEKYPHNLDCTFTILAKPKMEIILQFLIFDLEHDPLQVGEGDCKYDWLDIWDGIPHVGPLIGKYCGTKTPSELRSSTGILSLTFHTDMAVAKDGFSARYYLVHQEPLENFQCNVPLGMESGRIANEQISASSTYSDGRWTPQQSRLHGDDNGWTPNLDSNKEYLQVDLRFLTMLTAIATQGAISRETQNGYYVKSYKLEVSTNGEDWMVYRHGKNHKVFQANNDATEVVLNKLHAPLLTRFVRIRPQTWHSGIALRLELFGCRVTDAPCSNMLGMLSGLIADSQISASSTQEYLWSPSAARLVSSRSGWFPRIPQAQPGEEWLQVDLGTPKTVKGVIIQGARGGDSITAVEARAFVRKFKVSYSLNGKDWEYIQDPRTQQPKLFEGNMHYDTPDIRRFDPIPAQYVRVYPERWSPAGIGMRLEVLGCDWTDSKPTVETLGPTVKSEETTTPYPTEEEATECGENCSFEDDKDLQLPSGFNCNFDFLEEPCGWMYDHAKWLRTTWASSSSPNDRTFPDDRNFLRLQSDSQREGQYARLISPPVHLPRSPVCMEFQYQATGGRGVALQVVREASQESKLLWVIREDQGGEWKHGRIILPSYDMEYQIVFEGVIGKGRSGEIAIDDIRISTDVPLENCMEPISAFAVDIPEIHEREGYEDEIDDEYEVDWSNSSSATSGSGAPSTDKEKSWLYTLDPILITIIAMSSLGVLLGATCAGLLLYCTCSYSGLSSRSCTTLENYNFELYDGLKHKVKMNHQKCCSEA
The assay can be described thus: flow cytometry on Expi293-hNRP2 cells, 0.05-100 nM, anti-human Fc detection. How it is done:
(§1) To assess the ability of the anti-NRP2 antibodies to displace the binding of VEGF-C, Semaphorin 3F and HRS polypeptides, flow cytometry was used. Binding of recombinant human VEGF-C (R&D Cat#9199-VC-025, untagged), Sema3F-Fc (R&D Cat#9878-S3-025, Fc chimera protein) or Sema3F-p95m (prepared In-house), Myc-tagged Sema3F-p95 R583A R586A-1359) to Expi293-hNRP2 cells over expressing human NRP2 were determined by immunostaining assay as described in Example 4. Studies were conducted with cells incubated with each of these proteins at 0.05 - 100 nM at 3-fold dilutions on ice for 1 hour. Cells were then washed and stained with secondary and/or detection antibodies as described previously. […] Sema3F-Fc was detected by a Cy3-conjugated goat anti-human Fc IgG (Jackson ImmunoResearch Cat#109165098). Sema3F-p95m was detected by an AF555-conjugated anti-Myc antibody (ThermoFisher Cat#MA1980A555).
(§2) Binding curves were fit and EC₅₀ values determined as described above. VEGF-C was determined to bind to Expi293-hNRP2 cells with an EC₅₀ of 0.6 nM. Sema3F-Fc was determined to bind to Expi293-hNRP2 cells with an EC₅₀ of ^{~}8.2 nM, and Sema3F-p95m bound to Expi293-hNRP2 cells with an with EC₅₀ of 5.7 nM.

The target in assay [3] is T1, human NRP2 variant 2 (NM_003872) …. The assay is described as follows: flow cytometry on Expi293-hNRP2 cells, 0.05-100 nM, anti-Myc detection. How it is done: as §1, §2
Assay [4] has the same target. The assay can be described thus: flow cytometry on Expi293-hNRP2 cells, 0.05-100 nM, rabbit anti-VEGF-C detection. How it is done:
as §1, §2

Where “and” joins values, the source holds several entries; their conditions need not be identical. Equal entries are not always repeated.

The EC50 is the concentration needed to bring the measured effect to its halfway point. Low values mean higher potency in that assay, high ones lower potency in that assay.

With “C9-PE Santa Cruz Biotech anti-NRP2 antibody”, the Fold change of a-NRP2 to Ctl (FC) in assay [1] was 6 fold.

Consider “C9-AF647 Santa Cruz Biotech anti-NRP2 antibody”, for which, in assay [1], the Fold change of a-NRP2 to Ctl (FC) was 2.6 fold and 1.8 fold.

B1: Human SEMA3F-Fc (R&D Systems #9878-S3) (Fc fusion, UniProt Q13275 19-779, looked up)
chain: SFPTQDHLPATPRVRLSFKELKATGTAHFFNFLLNTTDYRILLKDEDHDRMYVGSKDYVLSLDLHDINREPLIIHWAASPQRIEECVLSGKDVNGECGNFVRLIQPWNRTHLYVCGTGAYNPMCTYVNRGRRAQATPWTQTQAVRGRGSRATDGALRPMPTAPRQDYIFYLEPERLESGKGKCPYDPKLDTASALINEELYAGVYIDFMGTDAAIFRTLGKQTAMRTDQYNSRWLNDPSFIHAELIPDSAERNDDKLYFFFRERSAEAPQSPAVYARIGRICLNDDGGHCCLVNKWSTFLKARLVCSVPGEDGIETHFDELQDVFVQQTQDVRNPVIYAVFTSSGSVFRGSAVCVYSMADIRMVFNGPFAHKEGPNYQWMPFSGKMPYPRPGTCPGGTFTPSMKSTKDYPDEVINFMRSHPLMYQAVYPLQRRPLVVRTGAPYRLTTIAVDQVDAADGRYEVLFLGTDRGTVQKVIVLPKDDQELEELMLEEVEVFKDPAPVKTMTISSKRQQLYVASAVGVTHLSLHRCQAYGAACADCCLARDPYCAWDGQACSRYTASSKRRSRRQDVRHGNPIRQCRGFNSNANKNAVESVQYGVAGSAAFLECQPRSPQATVKWLFQRDPGDRRREIRAEDRFLRTEQGLLLRALQLSDRGLYSCTATENNFKHVVTRVQLHVLGRDAVHAALFPPLSMSAPPPPGAGPPTPPYQELAQLLAQPEVGLIHQYCQGYWRHVPPSPREAPGAPRSPEPQDQKKPRNRR
notes: Bought reagent; not shown: Fc of the bought chimera (detected with anti-human Fc)
Molecule B1 yielded an EC50 in assay [2] of around 8.2 nM.

B2: Sema3F-p95m (Myc-tagged Sema3F-p95 R583A R586A-1359) (ligand, UniProt Q13275 19-779, looked up)
chain: SFPTQDHLPATPRVRLSFKELKATGTAHFFNFLLNTTDYRILLKDEDHDRMYVGSKDYVLSLDLHDINREPLIIHWAASPQRIEECVLSGKDVNGECGNFVRLIQPWNRTHLYVCGTGAYNPMCTYVNRGRRAQATPWTQTQAVRGRGSRATDGALRPMPTAPRQDYIFYLEPERLESGKGKCPYDPKLDTASALINEELYAGVYIDFMGTDAAIFRTLGKQTAMRTDQYNSRWLNDPSFIHAELIPDSAERNDDKLYFFFRERSAEAPQSPAVYARIGRICLNDDGGHCCLVNKWSTFLKARLVCSVPGEDGIETHFDELQDVFVQQTQDVRNPVIYAVFTSSGSVFRGSAVCVYSMADIRMVFNGPFAHKEGPNYQWMPFSGKMPYPRPGTCPGGTFTPSMKSTKDYPDEVINFMRSHPLMYQAVYPLQRRPLVVRTGAPYRLTTIAVDQVDAADGRYEVLFLGTDRGTVQKVIVLPKDDQELEELMLEEVEVFKDPAPVKTMTISSKRQQLYVASAVGVTHLSLHRCQAYGAACADCCLARDPYCAWDGQACSRYTASSKRASRAQDVRHGNPIRQCRGFNSNANKNAVESVQYGVAGSAAFLECQPRSPQATVKWLFQRDPGDRRREIRAEDRFLRTEQGLLLRALQLSDRGLYSCTATENNFKHVVTRVQLHVLGRDAVHAALFPPLSMSAPPPPGAGPPTPPYQELAQLLAQPEVGLIHQYCQGYWRHVPPSPREAPGAPRSPEPQDQKKPRNRR
notes: not shown: Myc tag
With B2, the EC50 in assay [3] was 5.7 nM.

B3: recombinant human VEGF-C (R&D Systems #9199-VC) (ligand, UniProt P49767 103-227, looked up)
chain: TEETIKFAAAHYNTEILKSIDNEWRKTQCMPREVCIDVGKEFGVATNTFFKPPCVSVYRCGGCCNSEGLQCMNTSTSYLSKTLFEITVPLSQGPKPVTISFANHTSCRCMSKLDVYRQVHSIIRR
notes: Bought reagent
In the case of B3, in assay [4], the half-maximal effective concentration (EC50) came out at 0.6 nM.
